# From PMC2199927
# Biological target: c-myc-tagged Sec8 (S. cerevisiae) (UniProt P32855)
# Assay: co-IP
binder,measurement,value
Sec4 (natural protein) MSGLRTVSASSGNGKSYDSIMKILLIGDSGVGKSCLLVRFVEDKFNPSFITTIGIDFKIKTVDINGKKVKLQLWDTAGQERFRTITTAYYRGAMGIILVYDVTDERTFTNIKQWFKTVNEHANDEAQLLLVGNKSDMETRVVTADQGEALAKELGIPFIESSAKNDDNVNEIFFTLAKLIQEKIDSNKLVGVGNGKEGNISINSGSGNSSKSNCC,percent of the total Sec4 associated (limit of detection),< 0.07%
